Results published in publication PMC9834311.

Target: E. coli F1Fo ATP synthase subunit b (cysteine-free enzyme) (E. coli) (UniProt P0ABA0)
Assay: cryo-EM structure; detergent-solubilised (digitonin) cysteine-free E. coli F1Fo ATP synthase (WT at 11 μM, εΔCTH2 mutant at 9 μM) with 10 mM MgATP, pH 8.0, 22 °C, 45 s in all until freezing

## E. coli F1Fo ATP synthase subunit b (cysteine-free enzyme) (from UniProt P0ABA0 1-156) (natural protein)
  stoichiometry N: 2
